# Read-outs that look alike come from different tables or passages of the source.
# B1: mAb-EspB-B7 (antibody, V domains shown)
# VH: EVQLLESGGGLVQPGGSLRLSCAASGFTFSHYAMNWVRQAPGKGLEWVSAINSNGDSTYYPDTVKDRFTISRDNSKNTLYLQMNSLRAEDTAVYYCARDRRAGYFDYWGQGTLVTVSS
# VL: DIVLTQPPSASGTPGQRVTISCSGSRDNIGKNYVSWYQQLPGTAPKLLIYRNNQRPSGVPDRFSGSKSGTSASLAISGLRSEDEADYYCSAWDTSLNAYVFGPGTQLTVL
# Tests used:
# mAb-EspB-B7 [1] = target: mAb-EspB-B7
# [2] = target: Peptide #49 (enteropathogenic E. coli (EPEC))
# [3] = target: Peptide #49 + 50 (enteropathogenic E. coli (EPEC))
# [4] = target: Peptide #50 (enteropathogenic E. coli (EPEC))
# mAb-EspB-B7 [5] = target: mAb-EspB-B7; remark: listed apart in the source
binder,measurement,setting,value
CTSAQKASQVAEEAADC (modifications not checked) [Peptide #49],IC50 (read off the curve),mAb-EspB-B7 [1],0.8 µg/mL
B1,EC50 (read off the curve),[2],0.5 µg/mL
same,EC50 (read off the curve),[3],0.3 µg/mL
same,EC50 (read off the curve),[4],0.4 µg/mL
CTSAQKASQVAEEAADAAQEC (modifications not checked) [Peptide #49 + 50],IC50 (read off the curve),mAb-EspB-B7 [5],2 µg/mL

# From patent US20240166729A1
